# Measurements taken from US20050124036.
# Experiments:
# [1] = target: T1, streptokinase (S8026) (Sigma, Deisenhofen), P00779
# T1 chain: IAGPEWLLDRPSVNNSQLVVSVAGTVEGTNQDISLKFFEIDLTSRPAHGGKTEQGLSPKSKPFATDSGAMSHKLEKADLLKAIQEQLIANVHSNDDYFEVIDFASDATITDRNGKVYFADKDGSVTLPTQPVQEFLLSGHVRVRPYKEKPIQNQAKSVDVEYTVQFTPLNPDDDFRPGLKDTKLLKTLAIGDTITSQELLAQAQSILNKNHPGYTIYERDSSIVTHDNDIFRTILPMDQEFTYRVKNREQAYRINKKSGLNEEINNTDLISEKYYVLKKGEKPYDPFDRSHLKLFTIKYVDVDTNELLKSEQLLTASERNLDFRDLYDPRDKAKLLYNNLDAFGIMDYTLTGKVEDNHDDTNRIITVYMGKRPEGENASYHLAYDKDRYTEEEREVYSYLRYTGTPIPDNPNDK
# [2] = target: T2, plasminogen according to the present invention (20 mg/ml, Example 8)
# T2 chain: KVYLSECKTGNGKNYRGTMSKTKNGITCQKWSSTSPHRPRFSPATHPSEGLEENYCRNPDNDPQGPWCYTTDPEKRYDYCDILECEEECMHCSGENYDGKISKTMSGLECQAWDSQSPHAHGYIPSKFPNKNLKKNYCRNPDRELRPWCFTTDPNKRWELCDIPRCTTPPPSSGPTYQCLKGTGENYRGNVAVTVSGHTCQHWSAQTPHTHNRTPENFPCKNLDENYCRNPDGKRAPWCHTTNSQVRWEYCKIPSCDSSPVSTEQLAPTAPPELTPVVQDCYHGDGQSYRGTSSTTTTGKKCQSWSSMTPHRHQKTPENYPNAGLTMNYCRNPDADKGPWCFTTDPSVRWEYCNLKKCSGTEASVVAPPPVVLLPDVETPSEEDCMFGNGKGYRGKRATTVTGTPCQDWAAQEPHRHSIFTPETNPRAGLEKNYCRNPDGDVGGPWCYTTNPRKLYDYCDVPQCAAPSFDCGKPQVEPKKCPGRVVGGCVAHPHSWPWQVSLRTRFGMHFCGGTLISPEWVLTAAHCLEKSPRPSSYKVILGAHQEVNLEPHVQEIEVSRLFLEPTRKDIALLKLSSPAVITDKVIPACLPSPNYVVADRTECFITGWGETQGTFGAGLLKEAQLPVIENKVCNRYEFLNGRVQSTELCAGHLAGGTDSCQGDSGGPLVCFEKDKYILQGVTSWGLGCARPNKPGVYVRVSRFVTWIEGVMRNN
protein,measurement,setting,value
"recombinant human Lys-plasminogen secreted by Pichia pastoris carrying pSM54.2, pAC37.1 or pJW9.1 (alpha-factor prepropeptide joined by a Kex2 and two Ste13 … (protein) KVYLSECKTGNGKNYRGTMSKTKNGITCQKWSSTSPHRPRFSPATHPSEGLEENYCRNPDNDPQGPWCYTTDPEKRYDYCDILECEEECMHCSGENYDGKISKTMSGLECQAWDSQSPHAHGYIPSKFPNKNLKKNYCRNPDRELRPWCFTTDPNKRWELCDIPRCTTPPPSSGPTYQCLKGTGENYRGNVAVTVSGHTCQHWSAQTPHTHNRTPENFPCKNLDENYCRNPDGKRAPWCHTTNSQVRWEYCKIPSCDSSPVSTEQLAPTAPPELTPVVQDCYHGDGQSYRGTSSTTTTGKKCQSWSSMTPHRHQKTPENYPNAGLTMNYCRNPDADKGPWCFTTDPSVRWEYCNLKKCSGTEASVVAPPPVVLLPDVETPSEEDCMFGNGKGYRGKRATTVTGTPCQDWAAQEPHRHSIFTPETNPRAGLEKNYCRNPDGDVGGPWCYTTNPRKLYDYCDVPQCAAPSFDCGKPQVEPKKCPGRVVGGCVAHPHSWPWQVSLRTRFGMHFCGGTLISPEWVLTAAHCLEKSPRPSSYKVILGAHQEVNLEPHVQEIEVSRLFLEPTRKDIALLKLSSPAVITDKVIPACLPSPNYVVADRTECFITGWGETQGTFGAGLLKEAQLPVIENKVCNRYEFLNGRVQSTELCAGHLAGGTDSCQGDSGGPLVCFEKDKYILQGVTSWGLGCARPNKPGVYVRVSRFVTWIEGVMRNN","plasminogen activity after streptokinase activation, fermentation for 250 h, KM71H/pJW9.1-3",[1],a plasminogen activity of 1375 U/l
same,"plasminogen activity of culture supernatant after activation with streptokinase, 72 h of induction, KM71H/pSM54.2-1/1",[1],2 U/l
same,"plasminogen activity of culture supernatant after activation with streptokinase, 72 h of induction, KM71H/pSM54.2-1/2",[1],8 U/l
same,"plasminogen activity of culture supernatant after activation with streptokinase, 72 h of induction, KM71H/pSM54.2-1/3",[1],6 U/l
same,"plasminogen activity of culture supernatant after activation with streptokinase, 118 h of induction, KM71H/pSM54.2-1/1",[1],8 U/l
same,"plasminogen activity of culture supernatant after activation with streptokinase, 118 h of induction, KM71H/pSM54.2-1/2",[1],17 U/l
same,"plasminogen activity of culture supernatant after activation with streptokinase, 118 h of induction, KM71H/pSM54.2-1/3",[1],13 U/l
same,"plasminogen activity of culture supernatant after activation with streptokinase, 120 h of induction, KM71/pAC37.1-3/1",[1],an activity of 120 U/l
same,"plasminogen activity of culture supernatant after activation with streptokinase, 216 h of induction, KM71/pAC37.1-3/1",[1],an activity of 190 U/l
same,"plasminogen activity of culture supernatant after activation with streptokinase, BSM minimal medium, 120 h of induction, KM71/pAC37.1-3/1",[1],a plasminogen activity of 193 U/l
same,"plasminogen activity of culture supernatant after activation with streptokinase, BSM minimal medium, 168 h of induction, KM71/pAC37.1-3/1",[1],289 U/l
recombinant human Lys-plasminogen secreted by Pichia pastoris KM71H/pMHS476.1 (alpha-factor prepropeptide joined by a Kex2 cleavage site) (protein) KVYLSECKTGNGKNYRGTMSKTKNGITCQKWSSTSPHRPRFSPATHPSEGLEENYCRNPDNDPQGPWCYTTDPEKRYDYCDILECEEECMHCSGENYDGKISKTMSGLECQAWDSQSPHAHGYIPSKFPNKNLKKNYCRNPDRELRPWCFTTDPNKRWELCDIPRCTTPPPSSGPTYQCLKGTGENYRGNVAVTVSGHTCQHWSAQTPHTHNRTPENFPCKNLDENYCRNPDGKRAPWCHTTNSQVRWEYCKIPSCDSSPVSTEQLAPTAPPELTPVVQDCYHGDGQSYRGTSSTTTTGKKCQSWSSMTPHRHQKTPENYPNAGLTMNYCRNPDADKGPWCFTTDPSVRWEYCNLKKCSGTEASVVAPPPVVLLPDVETPSEEDCMFGNGKGYRGKRATTVTGTPCQDWAAQEPHRHSIFTPETNPRAGLEKNYCRNPDGDVGGPWCYTTNPRKLYDYCDVPQCAAPSFDCGKPQVEPKKCPGRVVGGCVAHPHSWPWQVSLRTRFGMHFCGGTLISPEWVLTAAHCLEKSPRPSSYKVILGAHQEVNLEPHVQEIEVSRLFLEPTRKDIALLKLSSPAVITDKVIPACLPSPNYVVADRTECFITGWGETQGTFGAGLLKEAQLPVIENKVCNRYEFLNGRVQSTELCAGHLAGGTDSCQGDSGGPLVCFEKDKYILQGVTSWGLGCARPNKPGVYVRVSRFVTWIEGVMRNN,"plasminogen activity of culture supernatant after activation with streptokinase (N-tosyl-Gly-Pro-Lys-pNA conversion), 72 h of induction, KM71H/pMHS476.1-1/1",[1],2 U/l
same,"plasminogen activity of culture supernatant after activation with streptokinase (N-tosyl-Gly-Pro-Lys-pNA conversion), 72 h of induction, KM71H/pMHS476.1-1/2",[1],2 U/l
same,"plasminogen activity of culture supernatant after activation with streptokinase (N-tosyl-Gly-Pro-Lys-pNA conversion), 72 h of induction, KM71H/pMHS476.1-1/3",[1],1 U/l
same,"plasminogen activity of culture supernatant after activation with streptokinase (N-tosyl-Gly-Pro-Lys-pNA conversion), 118 h of induction, KM71H/pMHS476.1-1/1",[1],7 U/l
same,"plasminogen activity of culture supernatant after activation with streptokinase (N-tosyl-Gly-Pro-Lys-pNA conversion), 118 h of induction, KM71H/pMHS476.1-1/2",[1],9 U/l
same,"plasminogen activity of culture supernatant after activation with streptokinase (N-tosyl-Gly-Pro-Lys-pNA conversion), 118 h of induction, KM71H/pMHS476.1-1/3",[1],8 U/l
Clostripain (protein) NKNQKVTIMYYCDADNNLEGSLLNDIEEMKTGYKDSPNLNLIALVDRSPRYSSDEKVLGEDFSDTRLYKIEHNKANRLDGKNEFPEISTTSKYEANMGDPEVLKKFIDYCKSNYEADKYVLIMANHGGGAREKSNPRLNRAICWDDSNLDKNGEADCLYMGEISDHLTEKQSVDLLAFDACLMGTAEVAYQYRPGNGGFSADTLVASSPVVWGPGFKYDKIFDRIKAGGGTNNEDDLTLGGKEQNFDPATITNEQLGALFVEEQRDSTHANGRYDQHLSFYDLKKAESVKRAIDNLAVNLSNENKKSEIEKLRGSGIHTDLMHYFDEYSEGEWVEYPYFDVYDLCEKINKSENFSSKTKDLASNAMNKLNEMIVYSFGDPSNNFKEGKNGLSIFLPNGDKKYSTYYTSTKIPHWTMQSWYNSIDTVKYGLNPYGKLSWCKDGQDPEINKVGNWFELLDSWFDKTNDVTGGVNHYQW,plasmin activity after activation,[2],1.7 U/mg
